The results in this text go back to the nanobody polyreactivity screen of Harvey et al. (2022).

This data set can be described thus: yeast display, Sf9 membrane polyspecificity reagent, FACS + sequencing; frameworks hold sequencing errors. The procedure, abridged:
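A nanobody's polyreactivity label depends on the gate it was sorted from. Yeast display cells were stained with 10% biotinylated, detergent-solubilized Sf9 membrane reagent for 1 hour at 4 °C, enriched on streptavidin microbeads and sorted by FACS. The low and high (top ~1%) gates were set on anti-HA fluorescence for expression and streptavidin fluorescence for reagent binding.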
Take “QVQLVESGGGLVQAGGSLRLSCAYSGRTICSNAMGWYRQAPGKESELVARIDSTYYADSVKGRFTISRDNAKNTVYLQMNSLKPEDTAVYYCAADAWDHWTWFYPTNGMDYWGQGTQVNVSS”: the “polyreactivity (PSR sort gate)” value is reported as “low polyreactivity”.

Turning to “QVQLVESGGGLVQAGGSLRLSCDASALTIITNAMGWYRQAPGKERELVAAISGTGGSTYYADSVKGRFTISRDNAKYTVYLQMNSLKPEDTAVYYCAAAPYTFWVGDSWGQGTQVTVSS”, the “polyreactivity (PSR sort gate)” value is “high polyreactivity”.

Consider “QVQLVESGGGLVQAGGSLRLSCDASARTFWRNAMGWYRQAPGKERELVAAISYSGGSTYYADSVKGRFTISRDYAKNTVYLQMNSLKPEDTAVYYCAVVYSTSSLYSGYYWGQGTQVTVSS”, for which the “polyreactivity (PSR sort gate)” value is “low polyreactivity”.

“QVQLVESGGGLVQAGGSLRLSCDASGFIFNYYVMGWYRQAPGKERELVAAISRSGGSTYYADSVKGRFTISRDNAKNTVYLQKNSLKTEDTAVYYCAAEYGYGKRAYDSWGQGTQVTVSS”: the “polyreactivity (PSR sort gate)” value is recorded as “high polyreactivity”.

For the sequence “QVQLVESGGGLVQAGGSLRLSCDASGFIFVVYALGWYRQAPGKERDLVAAITNGGITYYADSVKGRFTISRDNAKNTVYLQMNSLKPEDTAVYYCNAQYTVYDGYVCYYYWGQGTQVTVSS”, the “polyreactivity (PSR sort gate)” value is reported as “low polyreactivity”.

In the case of “QVQLVESGGGLVQAGGSLRLSCDASGFTFVSYAMGSYRQAPGKERELVAVISYRAGSTYYADSVKGRFTISRDNAKNTVYLPMYSLKPEDTAVYYCATDRYSRRNDYWGQGTQVTVSS”, the “polyreactivity (PSR sort gate)” value is reported as “high polyreactivity”.

As to “QVQLVESGGGLVQAGGSLRLSCDASGFTLEKNAMGWYRQAPGKERELVADISSTDSTNYADSVKGRFTISRDNAKNTVYIQMNSLKPEDTAVYYCGRYDGPGTEEFDYWGQGTQVTVSS”, the “polyreactivity (PSR sort gate)” value is “low polyreactivity”.

Take “QVQLVESGGGLVQAGGSLRLSCDASGIFVGYTLGWYRQAPRKERELVAAIRWTDGSTYYADSVKGRFTISRDNAKNTVYLQRNSLNPEDTAVYDCGADSNDPARYYYGDEFEDEYWGQGTQVTVSS”: the “polyreactivity (PSR sort gate)” value is “low polyreactivity”.

For the sequence “QVQLVESGGGLVQAGGSLRLSCDASGIIFGFNTMGWYRQAPVKERELVAAINGSDGSTYADSVKGRFTISRDNAKNTVYLQMISVKPEDTAVYYCAKALDYRYRRYDYWGQGTQVTVSS”, the “polyreactivity (PSR sort gate)” value is “low polyreactivity”.

Turning to “QVQLVESGGGLVQAGGSLRLSCDASGIIFVKYAMGWYRQAPGKERELVAAITSGGSTYYADSVKGRFTISRDNAKNTVYLQMNSLKPEDTAVYYCNADTWFLYFFTINGYWGQGTQVTVSS”, the “polyreactivity (PSR sort gate)” value was “high polyreactivity”.

“QVQLVESGGGLVQAGGSLRLSCDASGITFWGYVMGWYRQAPGKERELVAAISSSGGRTYYADSVKGRFTISLDNAKNTVYLQMNSLKPEDTAVYYCAARFLYANRYSVDYDYCGQGTQVTVSS”: the “polyreactivity (PSR sort gate)” value was “high polyreactivity”.

With “QVQLVESGGGLVQAGGSLRLSCDASGITFWNALGWYRQAPGKERELVAAITSSGGSTYYADSVKGRFTISRDNAKNTVDLQMNSLKPEDTAVYYCAADYGRTRYDMDYWGQGTQVTVSS”, the “polyreactivity (PSR sort gate)” value is reported as “low polyreactivity”.

For “QVQLVESGGGLVQAGGSLRLSCDASGITITEYARGWYRQAPGTERELVAVISSVGTMYYADSVKGRFTISRDNEKNTVYLQMKSLKPEDTAVYYCAADYTDDGEYPYWSGSDYWGQGTQVTVSS”, the “polyreactivity (PSR sort gate)” value is reported as “low polyreactivity”.

As to “QVQLVESGGGLVQAGGSLRLSCDASGLTFAYYAMGWYRQAPGKERELVAAISSSGGRTYYADSVKGRFTISRDNAKNTVYLQMNSLKPEDTAVYYCAKSRYSTQTDYNYWGQGTQVTVSS”, the “polyreactivity (PSR sort gate)” value was “high polyreactivity”.

Consider “QVQLVESGGGLVQAGGSLRLSCDASGLTFDYNAMGWYRQAPGKERELVAAITWSGGSTYYADSVKGRFTISRDNAKNTVYLQMNSLKPEDTAVYYCARDGVGRGYGYFTPLGYDYWGQGTQVTVSS”, for which the “polyreactivity (PSR sort gate)” value is on record as “low polyreactivity”.

Take “QVQLVESGGGLVQAGGSLRLSCDASGLTFGWNAMGWSRQAPGKERELVAALSYNGVSTHYADTVKGRFTISRDNAKNTVYLQMNSLKPEDTAVYYCAARALTWPYGGTAPRLYNYWGQGTQVTVSS”: the “polyreactivity (PSR sort gate)” value is given as “low polyreactivity”.
